Measurements published in publication PMC6465933, “Direct Binding of the Flexible C-Terminal Segment of Periaxin to β4 Integrin Suggests a Molecular Basis for CMT4F” (Frontiers in Molecular Neuroscience, 2019).
Each block holds one binder with its values, some of them ahead of it.

B1: His-tagged rat β4-FNIII-3 (β4 integrin amino acids 1512–1602) (domain or fragment, UniProt Q64632 1512-1602, looked up)
chain: PDTPTRLVFSALGPTSLKVSWQEPQCDRALLGYSVEYQLLNGGEMHRLNIPNPGQTSVVVEDLLPNHSYVFRVRAQSQEGWGREREGVITI
notes: β4 integrin, third cytoplasmic fibronectin type III domain, rat, amino acids 1512-1602, synthetic gene in pJ401; No tag cleavage is described for this protein; the His tag is partly seen in the crystal structure; also called His-β4-FNIII-3; rFNIII-3; source: E. coli BL21(DE3), purified (Ni-NTA, SEC)
B3: rat L-PRX C-terminal region (amino acids 1036–1383) (domain or fragment, UniProt Q63425 1036-1383, looked up)
chain: EVELVTPGAQETEKVTSGVKPSGLQVSTTRQVVAEGQEGAQRVSSLGISLPQVELASFGEAGPEIAAPSAEGTVGSRIQVPQVMLELPGTQVAGGDLLVGEGIFKMPTVTVPQLELDVGLGHEAQAGETAKSEGGLKLKLPTLGAGGKGEGAEAQSPEAQHTFHISLPDVELTSPVSSHAEYQVVEGDGDGGHKLKVRLPLFGLARAKEGIETGEKVKSPKLRLPRVGFSQSESASGEGSPSPEEEEEGSGEGASGRRGRVRVRLPRVGLASPSKGSKGQEGDAASKSPVGEKSPKFRFPRVSLSPKARSGSKDREEGGFRVRLPSVGFSETAAPGSARIEGTQAAAI
notes: After TEV cleavage an additional N-terminal Ser residue is left; also called rPRX-C; source: E. coli BL21(DE3), purified (Ni-NTA in urea, TEV cleavage, second Ni-NTA, SEC)

Experiments:
[1] = molecular target: B3; experiment: ITC; 680 μM β4-FNIII-3 titrated into 68 μM PRX-C, 25°C, 20 mM HEPES, 150 mM NaCl, pH 7.5; conditions: both partners purified
β4 integrin FNIII-3 = molecular target: T1, β4 integrin FNIII-3 (Homo sapiens, UniProt P16144); experiment: ITC
T1 chain: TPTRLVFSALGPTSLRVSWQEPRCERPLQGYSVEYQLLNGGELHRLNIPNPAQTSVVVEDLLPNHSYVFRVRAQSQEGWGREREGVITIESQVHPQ

[2] = molecular target: B1; experiment: SEC-MALS; with QELS; equimolar complex (145 μM each), Superdex 200 increase 3.2/300GL, 20 mM Tris, 150 mM NaCl, pH 7.4, ambient temperature; conditions: both partners purified

Binder: B1
- Kd [1]: 1700 ± 100 nM
- dH [1]: 6.2 ± 0.06 kcal/mol
- stoichiometry N [1]: ~1

- Kd (β4 integrin FNIII-3): 1700 nM
B2: periaxin C-terminal segment (protein)
chain: SGRRGRVRVRLPRVGLAAPSKASRGQEGDAAPKSPVREKSPKFRFPRVSLSPKARSGSGDQEEGGLRVRLPSVGFSETGAPGPARMEGAQAAAV

Binder: B3
- stoichiometry N [2]: 1
